Measured values: US20230374157A1 (SYSTIMMUNE, published 2023)

Experiments:
[1] = target: T1, biotinylated human EGFR extracellular domain (Acro EGF-H82E3) (human, UniProt P00533 25-645, biotinylated (site not stated)); experiment: BLI avidity format, biotinylated EGFR ECD on SA sensors, antibody in solution, 1:1 fit
T1 construct: extracellular domain; Loaded onto streptavidin (SA) sensors; also called immobilized EGFR

[2] = target: T2, His-tagged human HER3 extracellular domain (Acro ER3-H5223) (human, UniProt P21860 20-643); experiment: BLI (Octet), antibody captured on AHC sensors; tandem: 100 nM EGFR 720 s, then 100 nM EGFR + 400 nM HER3 720 s, then buffer; EGFR+HER3 step
T2 construct: extracellular domain; Monomeric, in solution; not shown: His tag

[3] = target: T3, His-tagged human EGFR extracellular domain (expressed and purified in-house) (human, UniProt P00533 25-645); experiment: BLI, antibody on AHC tips, monomeric EGFR ECD in solution, 1:1 fit
T3 construct: extracellular domain; Monomeric, in solution; also called EGFR (purified in-house); not shown: His tag

[4] = target: T4, human His-tagged HER3 extracellular domain (in-house expressed) (human, UniProt P21860 20-643); experiment: BLI sandwich assay, antibody held on immobilized EGFR, HER3 ECD in solution
T4 construct: extracellular domain; also called HER3 ECD (in-house expressed); not shown: His tag

[5] = target: T2, His-tagged human HER3 extracellular …; experiment: BLI, antibody on AHC tips, monomeric HER3 ECD in solution, 1:1 fit
[6] = target: T4, human His-tagged HER3 extracellular …; experiment: BLI sandwich assay, antibody held on immobilized biotinylated EGFR, 500 nM HER3 ECD in solution, 1:1 fit

| Kd [1] [nM] | koff [1] [s⁻¹] | kon [1] [M⁻¹ s⁻¹] | binding result [2] | Kd [3] [nM] | koff [3] [s⁻¹] | kon [3] [M⁻¹ s⁻¹] | binding result [4] | Kd [5] [nM] | koff [5] [s⁻¹] | kon [5] [M⁻¹ s⁻¹] | Kd [6] [nM] | koff [6] [s⁻¹] | kon [6] [M⁻¹ s⁻¹] | Binder |
| --- | --- | --- | --- | --- | --- | --- | --- | --- | --- | --- | --- | --- | --- | --- |
| < 0.001 | < 1e-07 | 466000 | no binding (tested: 400 nM) | 4.76 | 0.0013 | 272000 | no binding (tested: 500 nM) | – | – | – | – | – | – | SI-71M1, humanized cetuximab monoclonal antibody (antibody, human IgG1, kappa, V domains shown, also called Hu-Cetuximab; humanized cetuximab mAb) VH: QVQLQQSGPGLVKPSETLSITCTVSGFSLTNYGVHWIRQAPGKGLEWLGVIWSGGNTDYNTPFTSRFTITKDNSKNQVYFKLRSVRADDTAIYYCARALTYYDYEFAYWGQGTLVTVSS VL: EIVLTQSPSTLSVSPGERATFSCRASQSIGTNIHWYQQKPGKPPRLLIKYASESISGIPDRFSGSGSGTEFTLTISSVQSEDFAVYYCQQNNNWPTTFGPGTKLTVLR |
| – | – | – | – | 15.8 | 0.00178 | 113000 | – | – | – | – | – | – | – | SI-1C5 (nimotuzumab-based anti-EGFR monoclonal antibody) (antibody, V domains shown) VH: QVQLQQSGAEVKKPGSSVKVSCKASGYTFTNYYIYWVRQAPGQGLEWIGGINPTSGGSNFNEKFKTRVTITVDESTNTAYMELSSLRSEDTAFYFCARQGLWFDSDGRGFDFWGQGSTVTVSS VL: DIQMTQSPSSLSASVGDRVTITCRSSQNIVHSNGNTYLDWYQQTPGKAPKLLIYKVSNRFSGVPSRFSGSGSGTDFTFTISSLQPEDIATYYCFQYSHVPWTFGQGTKLQITR |
| < 0.001 | < 1e-07 | 353000 | – | 4.61 | 0.00122 | 264000 | – | 117 | 0.0308 | 265000 | 922 | 0.07 | 75900 | SI-71X14, bispecific tetravalent anti-EGFR x HER3 antibody (humanized cetuximab IgG with MM-111 anti-HER3 scFv at the C-terminus of each heavy chain) (bispecific antibody, VH position 85 (Kabat) is D instead of cetuximab's N) heavy: not shown light: EIVLTQSPSTLSVSPGERATFSCRASQSIGTNIHWYQQKPGKPPRLLIKYASESISGIPDRFSGSGSGTEFTLTISSVQSEDFAVYYCQQNNNWPTTFGPGTKLTVLRTVAAPSVFIFPPSDEQLKSGTASVVCLLNNFYPREAKVQWKVDNALQSGNSQESVTEQDSKDSTYSLSSTLTLSKADYEKHKVYACEVTHQGLSSPVTKSFNRGEC |
